Experiment [1] concerns the target HLA-C*08:02. As to the kind of experiment: IEDB peptide-MHC binding, purified MHC/direct/fluorescence; filed as Kd, often an IC50 or EC50 that approximates it; ≥ and ≤ were set here for values at or beyond the usual limits of such assays.
The target in experiment [2] is HLA-A*02:01. As to the kind of experiment: IEDB peptide-MHC binding, purified MHC/competitive/fluorescence; filed as Kd, often an IC50 or EC50 that approximates it; ≥ and ≤ were set here for values at or beyond the usual limits of such assays.
Experiment [3] deals with HLA-A*26:01. The experiment is described as above.
Experiment [4] has as its target HLA-A*69:01. Described as above. The following applies: source organism: Mus musculus.
Experiment [5] has as its target HLA-B*18:01. Described as above.
Experiment [6] has as its target HLA-B*27:03. Described as above.
Experiment [7] addresses HLA-B*39:01. The experiment is described as above.
Experiment [8] deals with HLA-B*46:01. Described as above.
Experiment [9] deals with HLA-B*51:01. Described as above.
The target in experiment [10] is HLA-B*57:01. The description is as above.
Experiment [11] addresses HLA-A*02:01. As to the kind of experiment: IEDB peptide-MHC binding, purified MHC/competitive/fluorescence; ≥ and ≤ were set here for values at or beyond the usual limits of such assays. Conditions: source organism: Zaire ebolavirus.
Experiment [12] deals with HLA-A*24:02. The description is as above. Conditions: source organism: Zaire ebolavirus.
In experiment [13] the target is HLA-B*07:02. The description is as above.
The target of experiment [14] is HLA-B*08:01. Described as above.
Experiment [15] has as its target HLA-A*03:01. The experiment is described as above. Conditions: source organism: Variola virus.
In experiment [16] the target is HLA-A*11:01. Described as above.
The target in experiment [17] is HLA-A*02:03. As to the kind of experiment: IEDB peptide-MHC binding, purified MHC/competitive/fluorescence; filed as Kd, often an IC50 or EC50 that approximates it; ≥ and ≤ were set here for values at or beyond the usual limits of such assays. Conditions: source organism: Human immunodeficiency virus 1.
The target in experiment [18] is HLA-A*68:02. The experiment is described as above. Conditions: source organism: Human immunodeficiency virus 1.
Experiment [19] addresses HLA-A*02:01. As to the kind of experiment: IEDB peptide-MHC binding, purified MHC/competitive/radioactivity; ≥ and ≤ were set here for values at or beyond the usual limits of such assays.
Experiment [20] addresses HLA-A*01:01. Briefly: IEDB peptide-MHC binding, purified MHC/direct/fluorescence; filed as Kd, often an IC50 or EC50 that approximates it; ≥ and ≤ were set here for values at or beyond the usual limits of such assays.
For experiment [21], the target named is HLA-A*02:12. Described as above. The following applies: source organism: Vibrio vulnificus CMCP6.
The target of experiment [22] is HLA-A*02:19. The description is as above. The following applies: source organism: Vibrio vulnificus CMCP6.
The target of experiment [23] is HLA-A*03:01. The description is as above. Conditions: source organism: Vibrio cholerae.
Experiment [24] deals with HLA-A*26:02. The experiment is described as above.
The target in experiment [25] is HLA-A*29:02. Described as above. The following applies: source organism: Vibrio vulnificus CMCP6.
The target in experiment [26] is HLA-A*31:01. The experiment is described as above. The following applies: source organism: Vibrio cholerae.
In experiment [27] the target is HLA-A*69:01. The description is as above. The following applies: source organism: Vibrio cholerae.
Experiment [28] addresses HLA-B*07:02. The description is as above. Conditions: source organism: Vibrio vulnificus CMCP6.
For experiment [29], the target named is HLA-B*08:01. The experiment is described as above. The following applies: source organism: Vibrio vulnificus CMCP6.
Experiment [30] addresses HLA-B*15:09. The experiment is described as above. The following applies: source organism: Vibrio vulnificus CMCP6.
Experiment [31] addresses HLA-B*18:01. The description is as above. The following applies: source organism: Vibrio cholerae.
In experiment [32] the target is HLA-B*27:05. Described as above. The following applies: source organism: Vibrio cholerae.
Experiment [33] concerns the target HLA-B*40:01. The experiment is described as above. Conditions: source organism: Vibrio cholerae.
For experiment [34], the target named is HLA-B*48:01. The description is as above. Conditions: source organism: Vibrio cholerae.
Experiment [35] concerns the target HLA-B*51:01. Described as above. The following applies: source organism: Vibrio vulnificus CMCP6.
The target in experiment [36] is HLA-B*58:01. Described as above. The following applies: source organism: Vibrio vulnificus CMCP6.
The target of experiment [37] is HLA-A*02:06. Briefly: IEDB peptide-MHC binding, purified MHC/competitive/fluorescence; filed as Kd, often an IC50 or EC50 that approximates it; ≥ and ≤ were set here for values at or beyond the usual limits of such assays. The following applies: source organism: Vibrio cholerae V52.
Experiment [38] addresses HLA-A*11:01. Described as above. Conditions: source organism: Vibrio cholerae V52.
For experiment [39], the target named is HLA-A*30:01. The experiment is described as above. The following applies: source organism: Vibrio cholerae V52.
The target in experiment [40] is HLA-B*15:01. The experiment is described as above.
The target in experiment [41] is HLA-B*15:17. Described as above.
The target of experiment [42] is HLA-A*26:01. As to the kind of experiment: IEDB peptide-MHC binding, purified MHC/direct/fluorescence; filed as Kd, often an IC50 or EC50 that approximates it; ≥ and ≤ were set here for values at or beyond the usual limits of such assays. The following applies: source organism: Influenza A virus (A/shorebird/Delaware Bay/277/2000(H9N7)).
Where [43] appears, read: source organism: Zaire ebolavirus.
The mark [44] stands for this setting: source organism: Vibrio cholerae V52.

As a reminder, the Kd is the concentration at which binding is half-saturated. Low readings indicate tighter binding, high ones weaker binding. Broadly, the IC50 is the midpoint of a concentration-inhibition curve.

In the case of LVDENQSWY, the equilibrium dissociation constant (Kd) in experiment [1] (source organism: Mus musculus), in experiment [2] (source organism: Mus musculus), in [3] (source organism: Mus musculus), in [4], in [5] (source organism: Mus musculus) and in [6] (source organism: Mus musculus) was no less than 20 µM each time. Also, the Kd in [7] (source organism: Mus musculus), in experiment [8] (source organism: Mus musculus), in experiment [9] (source organism: Mus musculus) and in experiment [10] (source organism: Mus musculus) was no less than 20 µM throughout.
For MVTLRKERL, the IC50 in [11] came out at 18.8 µM; in experiment [12], 4.33 µM; in experiment [13] (setting [43]), 10.4 µM; in experiment [14] (setting [43]) it was 13.9 µM.
As for VARKHHTKI, the IC50 is no less than 110 µM in experiment [15], no less than 70.5 µM in experiment [16] (source organism: Variola virus), 10.5 µM in experiment [13] (source organism: Variola virus) and no less than 348 µM in experiment [14] (source organism: Variola virus).
For EELKSLYNTI, the results for the equilibrium dissociation constant (Kd) in experiment [17] and in experiment [18] were no less than 20 µM and 1.78 µM, respectively.
In the case of SLSHYFTLV, in [19] (source organism: Trypanosoma cruzi), the concentration for half-maximal inhibition (IC50) was 0.0016 µM.
For ILCGTCLIV, the IC50 in [19] (source organism: Homo sapiens) was 0.192 µM.
In the case of GRRTRREAI, the IC50 is no less than 83.2 µM in experiment [11], no less than 297 µM in [16] (setting [43]), no less than 102 µM in [13] (setting [43]) and 7.09 µM in experiment [14] (setting [43]).
Take IMDKNIIL: the 50% inhibitory concentration (IC50) in [19] (source organism: Influenza A virus (A/Puerto Rico/8/1934(H1N1))) came to 21 µM.
With RLPRIFCSC, in experiment [19] (source organism: Homo sapiens), the IC50 was determined as 1.98 µM.
As to TTILGLLPM, the Kd in [20] (source organism: Vibrio cholerae) is no less than 20 µM; in [21] it was no less than 20 µM; in experiment [22], no less than 20 µM; in experiment [23] it was no less than 20 µM; in [24] (source organism: Vibrio vulnificus CMCP6) it was no more than 0.001 µM; in [25] it was 0.016 µM. Moreover, the Kd was no less than 20 µM in [26]; 0.0016 µM in [27]; no less than 20 µM in experiment [28]; no less than 20 µM in experiment [29]; 7.7 µM in experiment [30]; 0.012 µM in experiment [31]. For the same sequence, the dissociation constant Kd in experiment [32] is no less than 20 µM; in experiment [33], 0.189 µM; in experiment [34], no less than 20 µM; in experiment [35], no less than 20 µM; in experiment [36], 0.329 µM; in experiment [2] (setting [44]), no less than 20 µM. Moreover, the Kd was 0.0057 µM in experiment [37]; no less than 20 µM in experiment [38]; 0.677 µM in [39]; 0.308 µM in [40] (setting [44]); 0.0387 µM in experiment [41] (setting [44]); 0.618 µM in experiment [7] (setting [44]). Moreover, the dissociation constant Kd in experiment [10] (setting [44]) is 3.58 µM.
With TTAKAMEQM, the Kd amounted to 0.0489 µM in experiment [42] and 0.002 µM in experiment [24] (source organism: Influenza A virus(A/swine/Shandong/fZC/2003(H9N2))).
Consider WTDLFDNKV, for which the dissociation constant Kd in [20] (source organism: Homo sapiens) was 0.002 µM; in experiment [1] (source organism: Homo sapiens), 0.254 µM; in [2] (source organism: Homo sapiens) it was no less than 20 µM; in experiment [3] (source organism: Homo sapiens), no less than 20 µM; in experiment [40] (source organism: Homo sapiens), no less than 20 µM; in experiment [41] (source organism: Homo sapiens), no less than 20 µM. Also, the dissociation constant (Kd) in experiment [5] (source organism: Homo sapiens), in [6] (source organism: Homo sapiens), in [7] (source organism: Homo sapiens), in [8] (source organism: Homo sapiens), in experiment [9] (source organism: Homo sapiens) and in experiment [10] (source organism: Homo sapiens) was no less than 20 µM each time.

The record behind these values is the Immune Epitope Database (IEDB).
